Assay: Stability test of ADC mimic in rat plasma (eliminated fluorescent molecules by HPLC/fluorescence detection)
Assay type: in vitro ADME
Conditions: ADC mimic 0.1 mg/mL, 37° C. for 4 days vs -80° C. (Day 0 = 100%)
Description: Blood stability of various ADC mimics was assessed by analyzing the amounts of fluorescent molecules that were reduced from ADC mimic when ADC mimic was incubated in rat blood as described below.
Sterile filtration was performed on 700 μL of rat plasma (Charles River) after ADC mimic was added to it so as to be 0.1 mg/mL. The solution was dispensed into six Eppen tubes in 50 μL portions. Three of the six samples were stored in an incubator set at 37° C. for 4 days. The remaining three were also stored in a −80° C. freezer for 4 days. 100 μL of acetonitrile was added to each sample, and the mixture was vortexed and centrifuged to obtain a precipitate. The resulting supernatant was collected and analyzed by HPLC.
The determination was made using a liquid chromatography/fluorescence detection method to determine the amount of fluorescence molecules that had eliminated from ADC mimic.
A lower rate of increase indicates higher stability in plasma.
Increase in fluorescence intensity of fluorescent molecules eliminated from Example ADC mimic=[(Day=4 fluorescence intensity)−(Day=0 fluorescence intensity)].
Increase in fluorescence intensity of fluorescent molecules eliminated from Control ADC mimic=[(Day=4 fluorescence intensity)−(Day=0 fluorescence intensity)].
Carboxyrhodamine 110-PEG4-DBCO was separately used to calculate the colleration between area-area of fluorescent intensity and concentration for HPLC. An increase in the fluorescent intensity of the respective ADC mimic was converted into a concentration by using the calculation equation. When the concentration of Day 0 was taken as 100%, the percentage of the concentration of the above increase was calculated as the elimination rate.

| SMILES | Elimination rate of fluorescence molecule at Day = 4 [%] |
| --- | --- |
| CCCNC(=O)c1cc(N=[N+]=[N-])cc(C(=O)NO)c1 [compound 93] | <3 |
| CCCNC(=O)CC[C@H](NC(=O)CCCCN=[N+]=[N-])C(=O)NO [compound 96] | <3 |
| CCCNC(=O)CC[C@H](NC(=O)CCCCN=[N+]=[N-])C(=O)NOC [compound 101] | <3 |
| CCNC(=O)CC[C@H](NC(=O)CCCCN=[N+]=[N-])C(=O)NOC [compound 102] | <3 |
| CCCNC(=O)C[C@H](NC(=O)COCCOCCOCCN=[N+]=[N-])C(=O)NO [compound 107] | 20 |
| CCCNC(=O)C[C@H](NC(=O)CCCCN=[N+]=[N-])C(=O)NO [compound 111] | 21 |

— US20240115719A1, “COMPOUND OR SALT THEREOF, AND ANTIBODY OBTAINED BY USING THE SAME” (priority 2021, published 2024)
